Data taken from patent US7351689 (ZymoGenetics, dated 2008).

What was measured:
[1] = target: T1, human IL-28 receptor on transfected 293 HEK cells (IL-28 receptor alpha subunit with endogenous CRF2-4) (human); assay: cell-based or functional assay
[2] = target: T1, human IL-28 receptor on transfected 293 …; assay: cell-based or functional assay; remark: listed apart in the source

T1 sequence (Q8IU57 whole entry, chain 1 of 2): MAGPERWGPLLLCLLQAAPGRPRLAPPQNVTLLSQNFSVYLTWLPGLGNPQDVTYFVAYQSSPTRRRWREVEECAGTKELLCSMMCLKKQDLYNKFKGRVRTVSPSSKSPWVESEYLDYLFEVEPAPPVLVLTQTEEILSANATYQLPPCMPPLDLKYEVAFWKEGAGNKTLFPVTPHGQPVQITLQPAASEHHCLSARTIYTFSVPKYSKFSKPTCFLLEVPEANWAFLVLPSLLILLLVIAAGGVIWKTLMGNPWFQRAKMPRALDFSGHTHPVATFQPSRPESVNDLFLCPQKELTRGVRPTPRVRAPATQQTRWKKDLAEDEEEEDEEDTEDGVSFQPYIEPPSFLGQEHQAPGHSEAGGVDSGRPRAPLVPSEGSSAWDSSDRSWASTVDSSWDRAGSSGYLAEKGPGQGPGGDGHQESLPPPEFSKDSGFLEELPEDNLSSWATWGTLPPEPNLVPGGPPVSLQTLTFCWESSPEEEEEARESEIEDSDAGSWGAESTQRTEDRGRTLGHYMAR
T1 sequence (Q08334 whole entry, chain 2 of 2, further chain): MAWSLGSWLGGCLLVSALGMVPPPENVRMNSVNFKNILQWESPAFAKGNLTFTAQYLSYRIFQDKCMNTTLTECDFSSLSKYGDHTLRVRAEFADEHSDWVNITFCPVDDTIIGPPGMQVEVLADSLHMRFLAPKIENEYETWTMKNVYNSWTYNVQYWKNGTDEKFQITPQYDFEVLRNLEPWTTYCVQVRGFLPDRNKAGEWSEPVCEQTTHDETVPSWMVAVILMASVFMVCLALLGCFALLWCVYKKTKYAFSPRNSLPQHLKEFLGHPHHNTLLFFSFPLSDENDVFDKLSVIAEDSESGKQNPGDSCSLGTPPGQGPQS

B1: IL-29 (SEQ ID NO: 4) (ligand)
chain: GPVPTSKPTTTGKGCHIGRFKSLSPQELASFKKARDALEESLKLKNWSCSSPVFPGNWDLRLLQVRERPVALEAELALTLKVLEAAAGPALEDVLDQPLHTLHHILSQLQACIQPQPTAGPRPRGRLHHWLHRLQEAPKKESAGCLEASVTFNLFRLLTRDLKYVADGNLCLRTSTHPEST
ISRE Signaling of Transfected 293 Cells Following Class II Cytokine Stimulation (Fold Induction), ISRE-Luc./IL-28R, IL-29 125 ng/ml [1]: 108 fold induction

B2: zcyto20 (IL-28A), human (ligand)
chain: VPVARLHGALPDARGCHIAQFKSLSPQELQAFKRAKDALEESLLLKDCRCHSRLFPRTWDLRQLQVRERPMALEAELALTLKVLEATADTDPALVDVLDQPLHTLHHILSQFRACIQPQPTAGPRTRGRLHHWLYRLQEAPKKESPGCLEASVTFNLFRLLTRDLNCVASGDLCV
ISRE Signaling of Transfected 293 Cells Following Class II Cytokine Stimulation (Fold Induction), ISRE-Luc./IL-28R, IL-28A 125 ng/ml [1]: 125 fold induction

B3: C1-C3 form (C16-C113) of wild-type E. coli-derived IL-29 (ligand)
chain: MGPVPTSKPTTTGKGCHIGRFKSLSPQELASFKKARDALEESLKLKNWSCSSPVFPGNWDLRLLQVRERPVALEAELALTLKVLEAAAGPALEDVLDQPLHTLHHILSQLQACIQPQPTAGPRPRGRLHHWLHRLQEAPKKESAGCLEASVTFNLFRLLTRDLKYVADGNLCLRTSTHPEST
bioactivity in an ISRE assay [2]: 30 fold higher than the C112-C171 form
